Laboratory results published in article PMC5667929, “Combinatorial action of Grainyhead, Extradenticle and Notch in regulating Hox mediated apoptosis in Drosophila larval CNS”.

B1: motif-24 (dsDNA)
DNA 1: CGCTCATAAAGTTAACCAACGATTTCATTCCTAAAC
DNA 2: GTTTAGGAATGAAATCGTTGGTTAACTTTATGAGCG
B2: motif-30 Grh1 mutant (dsDNA)
DNA 1: GAAACACGATAACCATAACTAATCC
DNA 2: GGATTAGTTATGGTTATCGTGTTTC

Assays:
AbdA (Hox) = AbdA (Hox) (UniProt P29555 261-590); assay: EMSA; no significant binding; EMSA, 20 ul, 30 min, room temperature; 5X buffer as printed: 20% glycerol, 1 mg/ml BSA, 2.5 mM EDTA, '50mM 1M tris' pH 7.5, 50 mM KCl, 5 mM MgCl2, 2.5 mM DTT, 90 ug/ml poly(dI-dC); proteins 100-200 ng; settings: protein: recombinant; tags: 6xHis
Exd/Hth-HM = target: T1, Exd/Hth-HM (UniProt P40427;O46339 1-376;127-211); assay: as above; settings: protein: recombinant; tags: 6xHis; copies: 1;1
T1 sequence 1: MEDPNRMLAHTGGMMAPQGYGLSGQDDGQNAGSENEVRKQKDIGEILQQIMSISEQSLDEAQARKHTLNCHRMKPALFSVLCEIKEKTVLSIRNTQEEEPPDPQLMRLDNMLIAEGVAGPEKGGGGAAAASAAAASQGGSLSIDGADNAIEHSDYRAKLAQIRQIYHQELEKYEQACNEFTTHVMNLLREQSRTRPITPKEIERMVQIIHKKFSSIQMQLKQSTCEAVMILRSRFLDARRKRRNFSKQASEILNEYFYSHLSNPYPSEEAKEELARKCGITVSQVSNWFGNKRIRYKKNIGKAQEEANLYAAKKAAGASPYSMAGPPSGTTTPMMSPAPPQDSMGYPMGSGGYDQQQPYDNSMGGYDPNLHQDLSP
T1 sequence 2: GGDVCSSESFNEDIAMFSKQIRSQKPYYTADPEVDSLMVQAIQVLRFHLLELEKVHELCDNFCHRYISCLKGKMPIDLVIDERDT

AbdA (Hox);Exd/Hth-HM = AbdA (Hox);Exd/Hth-HM (Drosophila melanogaster?;Drosophila …, UniProt P29555;P40427;O46339 261-590;1-376;127-211, |); assay: EMSA; EMSA, 20 ul, 30 min, room temperature; 5X buffer as printed: 20% glycerol, 1 mg/ml BSA, 2.5 mM EDTA, '50mM 1M tris' pH 7.5, 50 mM KCl, 5 mM MgCl2, 2.5 mM DTT, 90 ug/ml poly(dI-dC); proteins 100-200 ng; settings: protein: recombinant;recombinant; tags: 6xHis;6xHis; copies: 1;1;1
Grh = Grh (UniProt P13002 551-1333); assay: as above; settings: protein: recombinant; tags: 6xHis; chain copies: 2
[1] = target: AbdA (Hox);Exd/Hth-HM;Grh (Drosophila melanogaster?;Drosophila …, UniProt P29555;P40427;O46339;P13002 261-590;1-376;127-211;551-1333, ||); assay: as above; settings: protein: recombinant;recombinant;recombinant; tags: 6xHis;6xHis;6xHis; copies: 1;1;1;2
AbdA (Hox);Grh = AbdA (Hox);Grh (Drosophila melanogaster?;Drosophila …, UniProt P29555;P13002 261-590;551-1333, |); assay: EMSA; 'compromised'; later 'abolished completely'; EMSA, 20 ul, 30 min, room temperature; 5X buffer as printed: 20% glycerol, 1 mg/ml BSA, 2.5 mM EDTA, '50mM 1M tris' pH 7.5, 50 mM KCl, 5 mM MgCl2, 2.5 mM DTT, 90 ug/ml poly(dI-dC); proteins 100-200 ng; settings: protein: recombinant;recombinant; tags: 6xHis;6xHis; copies: 1;2
AbdA (Hox);Grh, sequence (P29555 261-590, chain 1 of 2): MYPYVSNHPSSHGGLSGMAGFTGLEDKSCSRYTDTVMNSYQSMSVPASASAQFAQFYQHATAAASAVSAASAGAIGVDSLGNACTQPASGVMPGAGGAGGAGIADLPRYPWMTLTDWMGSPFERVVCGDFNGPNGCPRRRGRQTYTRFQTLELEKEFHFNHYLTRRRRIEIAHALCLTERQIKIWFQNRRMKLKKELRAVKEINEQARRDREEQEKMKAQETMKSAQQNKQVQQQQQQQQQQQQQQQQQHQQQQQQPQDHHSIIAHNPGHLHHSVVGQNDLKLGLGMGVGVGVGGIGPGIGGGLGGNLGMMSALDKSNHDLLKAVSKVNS
AbdA (Hox);Grh, sequence (P13002 551-1333, chain 2 of 2): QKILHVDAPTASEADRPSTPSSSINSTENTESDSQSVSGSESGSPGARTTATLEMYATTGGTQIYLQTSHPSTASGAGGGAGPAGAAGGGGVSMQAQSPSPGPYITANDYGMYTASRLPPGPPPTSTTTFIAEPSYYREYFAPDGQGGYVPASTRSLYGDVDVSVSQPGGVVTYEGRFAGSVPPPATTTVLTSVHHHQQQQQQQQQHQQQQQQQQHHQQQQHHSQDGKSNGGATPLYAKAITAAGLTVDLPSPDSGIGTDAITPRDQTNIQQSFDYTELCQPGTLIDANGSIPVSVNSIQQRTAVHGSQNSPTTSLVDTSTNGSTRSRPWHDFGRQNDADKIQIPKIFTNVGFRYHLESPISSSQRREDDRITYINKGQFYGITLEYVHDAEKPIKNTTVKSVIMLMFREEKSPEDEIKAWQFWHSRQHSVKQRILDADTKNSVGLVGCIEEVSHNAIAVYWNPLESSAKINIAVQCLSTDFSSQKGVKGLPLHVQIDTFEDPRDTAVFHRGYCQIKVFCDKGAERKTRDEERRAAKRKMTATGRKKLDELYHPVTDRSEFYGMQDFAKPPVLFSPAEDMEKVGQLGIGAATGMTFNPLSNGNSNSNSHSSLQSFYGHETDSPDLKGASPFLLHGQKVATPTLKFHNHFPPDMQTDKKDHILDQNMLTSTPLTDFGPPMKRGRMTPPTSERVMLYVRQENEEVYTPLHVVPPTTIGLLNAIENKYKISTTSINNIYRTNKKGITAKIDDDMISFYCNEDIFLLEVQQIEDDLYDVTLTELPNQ

AbdA (Hox);Exd/Hth-HM, sequence (P29555 261-590, one chain of several): as the sequence (P29555 261-590, chain 1 of 2) above
AbdA (Hox), sequence (P29555 261-590): as the sequence (P29555 261-590, chain 1 of 2) above
AbdA (Hox);Exd/Hth-HM;Grh, sequence (P29555 261-590, chain 1 of 4, one chain of several): as the sequence (P29555 261-590, chain 1 of 2) above
AbdA (Hox);Exd/Hth-HM;Grh, sequence (P13002 551-1333, chain 4 of 4, one chain of several): as the sequence (P13002 551-1333, chain 2 of 2) above
Grh, sequence (P13002 551-1333): as the sequence (P13002 551-1333, chain 2 of 2) above

Binder	binding result (AbdA (Hox))	binding result (Exd/Hth-HM)	binding result (AbdA (Hox);Exd/Hth-HM)	binding result (Grh)	binding result [1]	binding result (AbdA (Hox);Grh)
B1	no binding	no binding	binds	no binding		
B2			binds		no binding	no binding
